The assay deals with synthetic wild-type CRN2 coiled coil peptide (human), Q9ULV4. Briefly: SEC-MALS. Background: In gel filtration, larger molecules generally elute earlier.

B1: synthetic wild-type CRN2 coiled coil peptide, Q9ULV4 442-472 (peptide)
chain: VQNEAKLDEILKEIKSIKDTICNQDERISKLEQQMAKIAA
modifications: not checked
In general, stoichiometry N refers to a count of units in the complex or per binding partner. Take B1: the stoichiometry N worked out at 3.

Values taken from PMC3268813.
